Legend:
[1] = test system: c-Src; test: phosphorylation enrichment, bacterial display (enrichment ratio); higher = better substrate or ligand; peptides without Tyr show the background
[2] = test system: c-Abl (mouse); test: as above
[3] = test system: Fer (mouse); test: as above
[4] = target: Hck (UniProt P08631); test: as above
[5] = target: Jak2 (UniProt O60674); test: as above
[6] = test system: AncSZ; test: as above
[7] = target: MERTK (UniProt Q12866); test: as above
[8] = target: Fes (UniProt P07332); test: as above
Chain of Fes (P07332 whole entry, looked up): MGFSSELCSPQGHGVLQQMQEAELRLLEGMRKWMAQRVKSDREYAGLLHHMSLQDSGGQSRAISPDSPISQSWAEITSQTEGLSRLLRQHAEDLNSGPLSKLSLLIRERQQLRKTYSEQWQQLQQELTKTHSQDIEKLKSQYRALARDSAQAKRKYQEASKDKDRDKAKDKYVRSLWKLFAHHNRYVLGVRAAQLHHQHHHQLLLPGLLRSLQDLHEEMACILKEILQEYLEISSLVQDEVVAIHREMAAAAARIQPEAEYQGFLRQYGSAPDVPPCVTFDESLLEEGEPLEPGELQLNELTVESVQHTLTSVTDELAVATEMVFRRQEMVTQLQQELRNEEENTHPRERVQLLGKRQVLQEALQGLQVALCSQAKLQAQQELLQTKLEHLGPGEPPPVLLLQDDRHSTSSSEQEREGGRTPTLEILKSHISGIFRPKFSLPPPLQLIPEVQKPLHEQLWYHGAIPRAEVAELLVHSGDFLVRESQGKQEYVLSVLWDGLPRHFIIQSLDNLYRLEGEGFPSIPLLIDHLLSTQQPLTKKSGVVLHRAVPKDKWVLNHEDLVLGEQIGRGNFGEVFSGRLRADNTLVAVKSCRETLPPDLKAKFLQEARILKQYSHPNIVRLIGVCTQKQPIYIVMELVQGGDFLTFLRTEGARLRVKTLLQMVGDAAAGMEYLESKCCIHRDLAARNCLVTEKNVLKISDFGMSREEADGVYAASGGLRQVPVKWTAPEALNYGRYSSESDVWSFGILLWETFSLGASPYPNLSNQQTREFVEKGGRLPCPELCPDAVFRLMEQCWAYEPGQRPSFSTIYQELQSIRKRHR

[9] = target: Fyn (UniProt P06241); test: as above
Chain of Fyn (P06241 whole entry, looked up): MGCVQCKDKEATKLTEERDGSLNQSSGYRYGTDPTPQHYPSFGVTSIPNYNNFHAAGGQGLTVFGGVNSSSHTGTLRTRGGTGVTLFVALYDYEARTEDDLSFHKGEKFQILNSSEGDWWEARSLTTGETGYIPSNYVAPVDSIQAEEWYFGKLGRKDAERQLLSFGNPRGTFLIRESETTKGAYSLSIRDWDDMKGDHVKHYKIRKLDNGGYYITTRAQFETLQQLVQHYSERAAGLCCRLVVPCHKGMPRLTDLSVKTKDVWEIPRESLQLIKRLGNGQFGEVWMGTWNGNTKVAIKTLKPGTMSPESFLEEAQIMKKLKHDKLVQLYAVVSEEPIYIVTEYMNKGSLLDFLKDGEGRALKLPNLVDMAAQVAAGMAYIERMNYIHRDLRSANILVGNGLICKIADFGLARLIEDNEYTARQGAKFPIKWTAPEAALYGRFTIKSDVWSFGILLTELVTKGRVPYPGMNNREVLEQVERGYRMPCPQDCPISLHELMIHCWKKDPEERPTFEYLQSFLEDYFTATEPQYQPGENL

[10] = target: FGFR3 (UniProt P22607); test: as above
Chain of FGFR3 (P22607 whole entry, looked up): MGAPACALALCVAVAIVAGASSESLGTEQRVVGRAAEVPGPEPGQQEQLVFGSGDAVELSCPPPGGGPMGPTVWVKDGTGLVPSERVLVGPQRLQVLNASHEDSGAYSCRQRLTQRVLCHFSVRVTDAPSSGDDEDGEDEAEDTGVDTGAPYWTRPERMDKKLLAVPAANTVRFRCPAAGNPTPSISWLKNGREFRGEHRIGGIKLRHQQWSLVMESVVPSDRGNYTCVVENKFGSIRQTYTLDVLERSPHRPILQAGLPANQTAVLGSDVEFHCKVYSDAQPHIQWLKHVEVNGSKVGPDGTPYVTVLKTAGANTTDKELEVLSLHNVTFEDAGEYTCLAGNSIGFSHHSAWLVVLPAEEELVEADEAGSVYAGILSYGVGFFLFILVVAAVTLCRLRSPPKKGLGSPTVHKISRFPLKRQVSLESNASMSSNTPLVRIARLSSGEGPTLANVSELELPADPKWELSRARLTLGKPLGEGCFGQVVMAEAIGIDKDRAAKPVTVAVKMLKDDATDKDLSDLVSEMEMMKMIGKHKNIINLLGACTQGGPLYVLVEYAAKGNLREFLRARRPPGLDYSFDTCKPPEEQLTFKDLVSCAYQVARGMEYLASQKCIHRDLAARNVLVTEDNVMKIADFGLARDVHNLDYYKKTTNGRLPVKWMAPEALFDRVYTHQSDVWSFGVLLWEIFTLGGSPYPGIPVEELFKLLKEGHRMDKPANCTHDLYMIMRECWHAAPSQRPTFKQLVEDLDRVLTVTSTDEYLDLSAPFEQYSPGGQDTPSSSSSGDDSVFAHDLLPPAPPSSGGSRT

[11] = target: EPHB1 (UniProt P54762); test: as above
[12] = target: FGFR1 (UniProt P11362); test: as above
[13] = target: EPHB2 (UniProt P29323); test: as above
Chain of EPHB2 (P29323 whole entry, looked up): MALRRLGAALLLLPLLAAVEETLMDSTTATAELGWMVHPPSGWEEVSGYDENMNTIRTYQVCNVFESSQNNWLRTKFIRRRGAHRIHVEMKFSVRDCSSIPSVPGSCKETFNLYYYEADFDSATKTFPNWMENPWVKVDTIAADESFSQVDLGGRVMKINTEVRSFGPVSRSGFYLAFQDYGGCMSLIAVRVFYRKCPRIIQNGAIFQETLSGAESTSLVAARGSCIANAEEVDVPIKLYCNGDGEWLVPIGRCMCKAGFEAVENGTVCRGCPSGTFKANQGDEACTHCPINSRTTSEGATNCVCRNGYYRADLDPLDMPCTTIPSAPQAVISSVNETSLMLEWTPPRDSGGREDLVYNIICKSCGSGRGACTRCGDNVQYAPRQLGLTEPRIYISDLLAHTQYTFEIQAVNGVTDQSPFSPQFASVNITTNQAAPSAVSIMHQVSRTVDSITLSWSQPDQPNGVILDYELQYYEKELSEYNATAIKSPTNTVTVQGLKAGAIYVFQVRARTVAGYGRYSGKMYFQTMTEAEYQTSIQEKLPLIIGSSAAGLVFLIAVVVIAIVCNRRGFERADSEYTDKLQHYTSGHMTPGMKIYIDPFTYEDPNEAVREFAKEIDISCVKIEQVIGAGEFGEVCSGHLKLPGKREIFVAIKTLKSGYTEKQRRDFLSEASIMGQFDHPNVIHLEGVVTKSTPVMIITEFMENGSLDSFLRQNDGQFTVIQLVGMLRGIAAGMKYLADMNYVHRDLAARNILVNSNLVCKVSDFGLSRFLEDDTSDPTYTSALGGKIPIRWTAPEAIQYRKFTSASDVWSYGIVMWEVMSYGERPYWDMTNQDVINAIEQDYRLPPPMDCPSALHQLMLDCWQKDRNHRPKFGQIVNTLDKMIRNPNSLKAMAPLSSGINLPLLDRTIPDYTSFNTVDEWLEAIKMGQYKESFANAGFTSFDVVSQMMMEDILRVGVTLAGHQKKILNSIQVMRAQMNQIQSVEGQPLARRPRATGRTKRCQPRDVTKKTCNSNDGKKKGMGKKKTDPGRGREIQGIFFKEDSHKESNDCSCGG

[14] = target: SHP2-C SH2; test: SH2 binding enrichment of the phosphorylated peptide, bacterial display (enrichment ratio); higher = better substrate or ligand; peptides without Tyr show the background
[15] = target: c-Src SH2; test: as above
[16] = target: Grb2 SH2 (UniProt P62993); test: as above
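For SH2 binding enrichment of the phosphorylated peptide, bacterial display in this document: peptide library displayed on the E. coli surface as eCPX fusions, selected cells deep-sequenced, score is each peptide's frequency after selection divided by its frequency in the input.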
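For phosphorylation enrichment, bacterial display in this document: 11-residue human phosphosite peptides and single-mutation variants displayed on the E. coli surface, counted by deep sequencing, each peptide's frequency after selection divided by its frequency in the unselected input library; frequency after pTyr selection over input frequency; kinase dosed for 20-30% of maximal phosphorylation in three min.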

Chain of Jak2 (O60674 whole entry, looked up): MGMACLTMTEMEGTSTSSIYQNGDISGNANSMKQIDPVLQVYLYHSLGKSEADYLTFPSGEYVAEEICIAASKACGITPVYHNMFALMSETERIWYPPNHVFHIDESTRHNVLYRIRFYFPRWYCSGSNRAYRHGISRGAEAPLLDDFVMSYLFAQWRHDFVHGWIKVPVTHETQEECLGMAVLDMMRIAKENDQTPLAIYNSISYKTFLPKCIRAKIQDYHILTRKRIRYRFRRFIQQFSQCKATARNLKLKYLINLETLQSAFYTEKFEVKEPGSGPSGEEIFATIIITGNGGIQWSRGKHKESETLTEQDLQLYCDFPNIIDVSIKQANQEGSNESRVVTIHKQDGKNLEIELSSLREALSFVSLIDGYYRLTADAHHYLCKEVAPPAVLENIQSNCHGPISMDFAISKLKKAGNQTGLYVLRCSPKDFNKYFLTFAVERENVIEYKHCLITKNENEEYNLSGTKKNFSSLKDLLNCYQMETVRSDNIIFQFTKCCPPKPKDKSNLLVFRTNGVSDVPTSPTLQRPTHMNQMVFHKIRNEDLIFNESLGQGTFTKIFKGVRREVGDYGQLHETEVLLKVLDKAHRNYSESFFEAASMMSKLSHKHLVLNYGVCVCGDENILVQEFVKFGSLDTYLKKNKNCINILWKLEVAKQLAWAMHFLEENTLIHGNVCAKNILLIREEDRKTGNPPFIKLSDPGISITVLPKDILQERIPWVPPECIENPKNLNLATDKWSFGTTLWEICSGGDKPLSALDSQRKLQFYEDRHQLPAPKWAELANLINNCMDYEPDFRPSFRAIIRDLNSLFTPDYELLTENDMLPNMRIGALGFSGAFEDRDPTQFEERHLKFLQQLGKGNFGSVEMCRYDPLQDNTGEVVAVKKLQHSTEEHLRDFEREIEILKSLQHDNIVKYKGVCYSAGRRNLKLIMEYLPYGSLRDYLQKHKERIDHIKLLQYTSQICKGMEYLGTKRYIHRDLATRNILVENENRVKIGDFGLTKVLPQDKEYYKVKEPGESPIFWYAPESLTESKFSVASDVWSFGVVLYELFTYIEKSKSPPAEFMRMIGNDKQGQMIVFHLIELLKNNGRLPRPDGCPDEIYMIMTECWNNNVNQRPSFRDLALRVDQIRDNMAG
Chain of Hck (P08631 whole entry, looked up): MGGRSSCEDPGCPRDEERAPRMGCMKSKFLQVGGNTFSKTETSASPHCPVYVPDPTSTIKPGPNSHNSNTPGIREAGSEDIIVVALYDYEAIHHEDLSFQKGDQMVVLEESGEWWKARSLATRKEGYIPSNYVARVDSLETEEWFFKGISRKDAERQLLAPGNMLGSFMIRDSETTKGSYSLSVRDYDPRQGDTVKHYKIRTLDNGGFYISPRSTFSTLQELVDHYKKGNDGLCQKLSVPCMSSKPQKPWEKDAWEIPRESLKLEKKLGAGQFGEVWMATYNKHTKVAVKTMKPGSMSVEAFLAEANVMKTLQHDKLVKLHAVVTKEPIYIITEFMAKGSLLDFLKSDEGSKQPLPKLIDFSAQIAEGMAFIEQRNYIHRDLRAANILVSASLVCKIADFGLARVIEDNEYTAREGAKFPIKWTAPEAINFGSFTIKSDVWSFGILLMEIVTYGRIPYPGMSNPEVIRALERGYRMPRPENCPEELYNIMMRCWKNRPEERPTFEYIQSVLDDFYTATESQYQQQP

Row | Sequence | SH2 binding enrichment [14] | SH2 binding enrichment [15] | SH2 binding enrichment [16] | phosphorylation enrichment [1] | phosphorylation enrichment [2] | phosphorylation enrichment [3] | phosphorylation enrichment [4] | phosphorylation enrichment [5] | phosphorylation enrichment [6] | phosphorylation enrichment [7] | phosphorylation enrichment [8] | phosphorylation enrichment [9] | phosphorylation enrichment [10] | phosphorylation enrichment [11] | phosphorylation enrichment [12] | phosphorylation enrichment [13]
1 | LMLVLYGRIFL [HTR1A_Y215_R220L] | 0.776 | 0.556 | 1.16 | 0.778 | 0.996 | 0.745 | 0.654 | 1.28 | 1.11 | 0.651 | 1.93 | 0.433 | 0.968 | 1.11 | 0.851 | 0.692
2 | PAGSGYPAYLG [ATP6V1A_Y374_D371G] | 0.688 | 0.396 | 0.884 | 0.417 | 0.525 | 0.866 | 0.645 | 0.727 | 0.782 | 0.442 | 0.752 | 0.574 | 0.914 | 1.22 | 1.17 | 0.638
3 | RTLIRYANLSN [BEST1_Y131_G135S] | 8.49 | 1.59 | 6.11 | 0.65 | 0.654 | 0.566 | 0.675 | 0.792 | 0.774 | 0.631 | 1.02 | 0.79 | 0.757 | 0.733 | 0.801 | 0.71
4 | FGAHNHHPLPV [OAT_Y55_Y55H_YF] | 1.14 | 0.818 | 1.03 | 0.477 | 0.579 | 0.505 | 0.457 | 0.583 | 0.58 | 0.496 | 0.636 | 0.369 | 0.694 | 0.393 | 0.386 | 0.54
5 | LFNQDYPIHCV [GATM_Y227_S231C_YF] | 0.806 | 0.407 | 0.446 | 0.33 | 1.11 | 1.03 | 0.555 | 1.17 | 1.43 | 0.729 | 1.49 | 0.777 | 2.52 | 1.32 | 4.54 | 0.889
6 | APVEDYGGGGG [B4GALT6_Y382_I379V] | 0.768 | 0.425 | 0.764 | 0.392 | 0.481 | 0.409 | 0.452 | 0.62 | 0.822 | 0.418 | 0.882 | 0.496 | 0.641 | 0.503 | 0.473 | 0.552
7 | KKHIPYREHKS [CSNK1G1_Y205] | 2.1 | 1.88 | 1.99 | 1.46 | 3.25 | 1.81 | 1.19 | 3.87 | 1.76 | 1.03 | 2.94 | 0.888 | 3.18 | 1.84 | 1.31 | 1.25
8 | VYPATYHPDHW [EFCAB12_Y544] | 0.635 | 0.53 | 1.03 | 0.436 | 0.526 | 0.419 | 0.689 | 0.639 | 0.554 | 0.296 | 0.662 | 0.465 | 0.828 | 0.423 | 0.564 | 0.385
9 | YQLENCCNGGG [INS_Y108_Y108C] | 0.666 | 0.972 | 0.747 | 0.59 | 0.556 | 0.535 | 0.563 | 0.763 | 0.829 | 0.601 | 0.903 | 0.689 | 0.621 | 1.05 | 0.547 | 0.522
10 | ADIETYLLEKS [MYH7_Y266] | 0.88 | 0.405 | 0.755 | 0.731 | 0.746 | 0.431 | 0.551 | 0.871 | 1.04 | 0.46 | 1.12 | 0.554 | 0.635 | 0.466 | 0.484 | 0.582
11 | EYFDGYWGYSV [ITGA2B_Y265] | 0.578 | 1.94 | 0.999 | 7.52 | 4.7 | 1.4 | 5.55 | 12.3 | 3.58 | 2.87 | 1.42 | 6.24 | 13.7 | 3.88 | 14.6 | 9.3
12 | FQNSLYAPDYS [FAM92A_Y226_R222Q] | 1.17 | 0.628 | 1.2 | 1.42 | 0.618 | 1.6 | 1.46 | 0.945 | 1.1 | 5.57 | 1.07 | 1.07 | 0.926 | 2.48 | 0.781 | 2.45
13 | GRQGIYTENER [GPR143_Y231] | 0.682 | 0.607 | 0.966 | 0.581 | 0.581 | 0.466 | 0.439 | 0.548 | 0.724 | 0.456 | 0.951 | 0.511 | 0.62 | 0.496 | 0.464 | 0.427
14 | RSSKMYPKTRS [LPL_Y329_L330P] | 0.556 | 0.486 | 0.916 | 0.614 | 1.2 | 0.342 | 0.509 | 1.43 | 0.601 | 0.562 | 0.675 | 0.502 | 0.624 | 0.359 | 0.547 | 0.151
15 | RYLKDYGEFEV [GINS1_Y156_C152Y] | 1.37 | 0.593 | 0.972 | 1.69 | 0.771 | 1 | 1 | 1.2 | 1.75 | 0.792 | 1.6 | 1.54 | 1.36 | 1.16 | 1.16 | 0.839
16 | EWLRRYLENGK [HLA-A_Y195] | 0.757 | 0.522 | 0.932 | 0.346 | 0.581 | 0.36 | 0.387 | 0.661 | 0.691 | 0.328 | 0.809 | 0.346 | 0.498 | 0.386 | 0.42 | 0.456
17 | MSPPGYKLVTG [GJA1_Y286] | 0.512 | 0.286 | 0.701 | 0.429 | 0.485 | 0.516 | 0.418 | 0.686 | 0.541 | 0.397 | 0.715 | 0.427 | 0.533 | 0.667 | 0.476 | 0.381
18 | IHHIDYFKETT [FGFR1_Y653_K656E_YF] | 0.767 | 0.447 | 0.832 | 0.489 | 0.445 | 0.451 | 0.446 | 0.692 | 0.605 | 0.427 | 0.778 | 0.555 | 0.567 | 0.456 | 0.443 | 0.415
19 | VDSGVYAVPPP [BCAR1_Y410] | 0.624 | 0.434 | 0.863 | 4.94 | 20.9 | 5.46 | 8.02 | 0.709 | 2.04 | 9.97 | 0.795 | 8.7 | 1.01 | 7.54 | 1.2 | 19.6
20 | AAYNKYDQERF [CDC73_Y293_R292K] | 0.863 | 0.58 | 0.923 | 0.398 | 0.588 | 0.419 | 0.299 | 0.739 | 0.54 | 0.287 | 0.762 | 0.371 | 0.454 | 0.364 | 0.332 | 0.335
21 | FDKEFYSVHNK [MET_Y1235_YF] | 0.841 | 0.543 | 0.917 | 0.641 | 0.959 | 0.561 | 0.803 | 0.866 | 0.806 | 0.721 | 0.947 | 0.479 | 0.717 | 0.432 | 0.528 | 0.638

Further lines, with some results ahead:

Row | SH2 binding enrichment [14] | SH2 binding enrichment [15] | SH2 binding enrichment [16] | Sequence | phosphorylation enrichment [1] | phosphorylation enrichment [2] | phosphorylation enrichment [3] | phosphorylation enrichment [4] | phosphorylation enrichment [5] | phosphorylation enrichment [6] | phosphorylation enrichment [7] | phosphorylation enrichment [8] | phosphorylation enrichment [9] | phosphorylation enrichment [10] | phosphorylation enrichment [11] | phosphorylation enrichment [12] | phosphorylation enrichment [13]
22 | 1 | 1.46 | 0.833 | VFLGAYDHFLP [SLC22A5_Y486_R488H_YF] | 3.29 | 1.06 | 4.81 | 2.73 | 0.726 | 1.36 | 6.29 | 0.955 | 3.08 | 0.811 | 1.8 | 0.611 | 3.32
23 | 0.694 | 0.368 | 0.774 | WEPFGFAVTRC [PTPRT_Y412_Y412F] | 0.409 | 1 | 0.548 | 0.456 | 1.4 | 1.18 | 0.399 | 1.48 | 0.409 | 0.845 | 0.702 | 0.447 | 0.653
24 | 2.38 | 2.66 | 1.61 | CTTVHYNFMCN [TP53_Y234_I232V_YF] | 0.499 | 0.687 | 0.598 | 0.445 | 0.622 | 0.769 | 0.384 | 0.901 | 0.499 | 0.673 | 0.458 | 0.472 | 0.52
25 | 0.991 | 13.5 | 0.809 | EKSREYDRLFE [PIK3R1_Y463_YF] | 0.5 | 0.784 | 0.437 | 0.522 | 0.935 | 0.929 | 0.453 | 0.993 | 0.448 | 0.577 | 0.457 | 0.434 | 0.602
26 | 0.531 | 0.595 | 0.907 | YDDGKYVYVVT [RPS6KA3_Y488] | 1.3 | 0.768 | 0.811 | 1.04 | 1.34 | 1.25 | 0.941 | 1.27 | 1.43 | 1.38 | 0.724 | 1.63 | 0.669
27 | 0.658 | 0.561 | 0.642 | GDGRFYMKEAI [PGM1_Y66] | 0.38 | 0.709 | 0.549 | 0.454 | 1.03 | 0.875 | 0.311 | 1.11 | 0.45 | 0.682 | 0.552 | 0.52 | 0.613
28 | 0.851 | 0.594 | 1.05 | TLKDVCDDGKY [RPS6KA3_Y483_Y483C] | 0.507 | 0.664 | 0.456 | 0.622 | 0.841 | 0.93 | 0.437 | 1.2 | 0.434 | 0.594 | 0.569 | 0.53 | 0.624
29 | 1.77 | 1.01 | 1.44 | NTQRPHYKGGG [TYROBP_Y111_Y111H] | 0.361 | 0.605 | 0.422 | 0.384 | 0.491 | 0.428 | 0.391 | 0.549 | 0.402 | 0.486 | 0.326 | 0.316 | 0.332
30 | 0.977 | 0.573 | 1.02 | QPSPSYDSSGG [TCF12_Y70_R74G] | 0.478 | 0.477 | 0.553 | 0.604 | 0.579 | 0.668 | 0.452 | 0.731 | 0.667 | 0.623 | 0.44 | 0.611 | 0.778
31 | 0.558 | 0.402 | 0.768 | TTKGAYSLSVR [YES1_Y194_I198V] | 0.376 | 0.517 | 0.403 | 0.483 | 0.511 | 0.894 | 0.364 | 0.73 | 0.317 | 0.548 | 0.404 | 0.405 | 0.5
32 | 0.561 | 0.482 | 0.849 | KLIETCFSKNF [PLP1_Y50_Y50C_YF] | 0.476 | 0.826 | 0.504 | 0.492 | 1.06 | 1.14 | 0.405 | 1.23 | 0.413 | 0.725 | 0.581 | 0.47 | 0.523
33 | 0.774 | 0.683 | 0.774 | YRDALYKFIVD [PHEX_Y250_M253I] | 0.638 | 0.916 | 0.759 | 0.706 | 1 | 1.08 | 1.65 | 1.25 | 0.623 | 1.38 | 1.97 | 0.952 | 1.02

Reference: the supplement of paper PMC10065799, “High-throughput profiling of sequence recognition by tyrosine kinases and SH2 domains using bacterial peptide display” (eLife, 2023)
